Legend:
sN-TALER N4.2.2 = molecular target: T1, sN-TALER N4.2.2 (synthetic); test: cell_activity; E. coli
T1 chain: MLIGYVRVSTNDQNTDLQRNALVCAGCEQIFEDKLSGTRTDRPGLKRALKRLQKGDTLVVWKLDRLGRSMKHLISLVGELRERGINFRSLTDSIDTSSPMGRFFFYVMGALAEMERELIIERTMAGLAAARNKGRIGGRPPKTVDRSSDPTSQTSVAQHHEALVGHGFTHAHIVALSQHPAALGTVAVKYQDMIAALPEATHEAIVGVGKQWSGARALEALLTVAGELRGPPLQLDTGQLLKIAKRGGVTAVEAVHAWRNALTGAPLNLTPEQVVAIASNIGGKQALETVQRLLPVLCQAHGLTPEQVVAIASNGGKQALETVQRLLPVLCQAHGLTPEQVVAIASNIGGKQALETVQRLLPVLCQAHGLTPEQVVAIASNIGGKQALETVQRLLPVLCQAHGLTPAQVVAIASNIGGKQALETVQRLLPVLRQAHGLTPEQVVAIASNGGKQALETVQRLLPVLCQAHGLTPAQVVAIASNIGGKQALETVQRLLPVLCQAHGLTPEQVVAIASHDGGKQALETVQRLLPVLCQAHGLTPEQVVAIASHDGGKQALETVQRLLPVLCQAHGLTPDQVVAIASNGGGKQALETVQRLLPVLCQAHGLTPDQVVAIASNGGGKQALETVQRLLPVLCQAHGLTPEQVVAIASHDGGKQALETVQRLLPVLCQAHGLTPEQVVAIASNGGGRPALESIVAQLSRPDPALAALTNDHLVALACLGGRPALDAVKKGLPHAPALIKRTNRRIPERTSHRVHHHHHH
Procedure: (§1) The co-transformed bacteria were plated on media with chloramphenicol, kanamycin, and X-gal then incubated at 37° C. for 18 to 36 hours. Control samples consisted of transformations using the reporter construct alone. Control transformants were similarly plated. The bacterial transformation protocol was either heat shock or electroporation per standard molecular biology techniques.
(§2) For each of these N-TALER chimera expression constructs, from one to three independent clones were selected for plasmid purification. These N-TALER chimera expression constructs were co-transformed with five of the N-TALER reporter constructs, as indicated in Table 15. […] In contrast to the result for pN-TALER N4.2.2, the chimera sN-TALER N4.2.2, with the same truncation point but a specific recombinase catalytic domain, reporters with 20, 24, or 40 bp of TALER central sequence length were efficiently recombined (score of 1) while reporters with 30 or 50 bp of TALER central sequence length were not recombined (score of 5). For the chimera sN-TALER N4.2, reporters with 20, 24, or 40 bp of TALER central sequence length were efficiently recombined (score of 1); the reporter with 30 bp of TALER central sequence length was poorly recombined (score of 3); and the reporter with 50 bp of TALER central sequence length was not recombined (score of 5). For the chimera pN-TALER N4.2, the recombination efficiency on the reporters tested varied from intermediate (scores of 3 and 4) to none (score of 5). […] In contrast to the result for sN-TALER N3.2, the chimera pN-TALER N3.2, with the same truncation point but a permissive recombinase catalytic domain, recombination efficiency on the reporters tested varied from efficient (scores of 1.5, 2, and 3) to none (score of 5). For both chimeras sN-TALER V.2 and pN-TALER V.2, there was efficient recombination (scores of 1, 1.5, and 2) of the 5 N-TALER reporter constructs tested.

sN-TALER N4.2 = molecular target: T2, sN-TALER N4.2 (synthetic); test: cell_activity; E. coli
T2 chain: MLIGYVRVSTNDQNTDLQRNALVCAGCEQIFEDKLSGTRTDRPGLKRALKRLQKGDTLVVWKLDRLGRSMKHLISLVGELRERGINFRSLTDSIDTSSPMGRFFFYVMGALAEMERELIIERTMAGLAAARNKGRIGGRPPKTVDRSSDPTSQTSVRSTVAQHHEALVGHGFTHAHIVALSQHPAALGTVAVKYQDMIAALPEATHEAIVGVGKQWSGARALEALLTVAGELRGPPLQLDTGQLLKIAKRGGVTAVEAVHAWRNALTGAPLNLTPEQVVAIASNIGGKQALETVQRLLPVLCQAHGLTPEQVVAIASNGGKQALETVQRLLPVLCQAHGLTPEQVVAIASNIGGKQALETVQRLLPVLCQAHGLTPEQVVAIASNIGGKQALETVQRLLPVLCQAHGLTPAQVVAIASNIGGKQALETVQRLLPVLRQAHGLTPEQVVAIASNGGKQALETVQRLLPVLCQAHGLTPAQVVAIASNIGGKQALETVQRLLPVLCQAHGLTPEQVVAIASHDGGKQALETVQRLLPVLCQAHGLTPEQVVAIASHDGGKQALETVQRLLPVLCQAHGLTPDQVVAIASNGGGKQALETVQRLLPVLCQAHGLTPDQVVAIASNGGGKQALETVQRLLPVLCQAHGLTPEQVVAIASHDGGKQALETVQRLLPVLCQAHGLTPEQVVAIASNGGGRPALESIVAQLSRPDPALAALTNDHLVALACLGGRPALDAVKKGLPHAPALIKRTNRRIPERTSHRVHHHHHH
Procedure: as §1, §2

B1: Gin18TALE+1 (dsDNA)
DNA 1: AGAAGGTATTTATATCCAAAACCATGGTTTACAATATAAATACCTTCT
DNA 2: AGAAGGTATTTATATTGTAAACCATGGTTTTGGATATAAATACCTTCT
activity (sN-TALER N4.2.2): 1 score | activity (sN-TALER N4.2): 1 score
